Measured values from publication PMC9002611.

Molecular target: Strep-tagged HypC_(H51A) (E. coli) (UniProt P0AAM3)
Test: pull-down; single-step Strep-tactin affinity enrichment of the Strep-tagged chaperone from extracts of anaerobically grown SHH228 cells co-producing HypD; elution fractions (10 ug protein) on SDS-PAGE, Coomassie stain, densitometry (ImageQuant TL); apparent stoichiometries

apparent stoichiometry with HypD, percent lower than for the native chaperone: 85 % lower
B1: HypD (untagged) (natural protein)
chain: MRFVDEYRAPEQVMQLIEHLRERASHLSYTAERPLRIMEVCGGHTHAIFKFGLDQLLPENVEFIHGPGCPVCVLPMGRIDTCVEIASHPEVIFCTFGDAMRVPGKQGSLLQAKARGADVRIVYSPMDALKLAQENPTRKVVFFGLGFETTMPTTAITLQQAKARDVQNFYFFCQHITLIPTLRSLLEQPDNGIDAFLAPGHVSMVIGTDAYNFIASDFHRPLVVAGFEPLDLLQGVVMLVQQKIAAHSKVENQYRRVVPDAGNLLAQQAIADVFCVNGDSEWRGLGVIESSGVHLTPDYQRFDAEAHFRPAPQQVCDDPRARCGEVLTGKCKPHQCPLFGNTCNPQTAFGALMVSSEGACAAWYQYRQQESEA
